Assay results from paper PMC5689087 (Structure (London, England : 1993), 2017).
Where no end group is shown, it is not given here. The star is where a group is joined. FITC = O=C1OC2(c3ccc(O)cc3Oc3cc(O)ccc32)c2ccc(NC(=S)*)cc21

What was measured:
[1] = target: human αVβ3 integrin ectodomain (purchased, lyophilized) (human, UniProt P06756;P05106); experiment: SPR
[2] = target: human αVβ3 integrin ectodomain (purchased, lyophilized) (human, UniProt P06756 31-992; P05106 27-718); experiment: SEC
Sequence of human αVβ3 integrin ectodomain (purchased, lyophilized) (human, UniProt P06756 31-992; P05106 27-718) (P06756 31-992, chain 1 of 2): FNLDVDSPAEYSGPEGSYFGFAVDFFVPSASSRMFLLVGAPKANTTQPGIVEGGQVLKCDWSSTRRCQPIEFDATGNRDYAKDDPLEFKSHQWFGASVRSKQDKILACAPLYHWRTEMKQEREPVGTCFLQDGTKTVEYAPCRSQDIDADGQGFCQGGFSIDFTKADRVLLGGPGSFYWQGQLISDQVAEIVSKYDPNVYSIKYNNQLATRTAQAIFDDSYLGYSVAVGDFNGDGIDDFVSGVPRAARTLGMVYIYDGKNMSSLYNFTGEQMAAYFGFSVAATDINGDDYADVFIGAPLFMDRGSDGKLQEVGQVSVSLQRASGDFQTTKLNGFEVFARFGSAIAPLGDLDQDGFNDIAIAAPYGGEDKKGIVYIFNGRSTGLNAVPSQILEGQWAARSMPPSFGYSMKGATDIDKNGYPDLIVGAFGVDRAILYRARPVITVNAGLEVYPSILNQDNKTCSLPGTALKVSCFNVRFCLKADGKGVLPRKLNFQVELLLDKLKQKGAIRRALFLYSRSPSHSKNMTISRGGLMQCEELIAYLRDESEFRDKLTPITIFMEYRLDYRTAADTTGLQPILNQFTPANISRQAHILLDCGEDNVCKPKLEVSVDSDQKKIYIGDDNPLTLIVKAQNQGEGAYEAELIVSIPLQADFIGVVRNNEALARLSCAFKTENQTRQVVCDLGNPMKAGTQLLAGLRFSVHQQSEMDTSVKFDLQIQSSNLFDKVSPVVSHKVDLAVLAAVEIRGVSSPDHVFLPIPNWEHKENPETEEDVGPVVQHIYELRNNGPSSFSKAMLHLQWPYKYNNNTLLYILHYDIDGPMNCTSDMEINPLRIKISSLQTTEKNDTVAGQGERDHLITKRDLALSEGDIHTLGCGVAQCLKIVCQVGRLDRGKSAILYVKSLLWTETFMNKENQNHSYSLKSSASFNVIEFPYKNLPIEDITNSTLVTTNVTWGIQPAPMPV
Sequence of human αVβ3 integrin ectodomain (purchased, lyophilized) (human, UniProt P06756 31-992; P05106 27-718) (P05106 27-718, chain 2 of 2): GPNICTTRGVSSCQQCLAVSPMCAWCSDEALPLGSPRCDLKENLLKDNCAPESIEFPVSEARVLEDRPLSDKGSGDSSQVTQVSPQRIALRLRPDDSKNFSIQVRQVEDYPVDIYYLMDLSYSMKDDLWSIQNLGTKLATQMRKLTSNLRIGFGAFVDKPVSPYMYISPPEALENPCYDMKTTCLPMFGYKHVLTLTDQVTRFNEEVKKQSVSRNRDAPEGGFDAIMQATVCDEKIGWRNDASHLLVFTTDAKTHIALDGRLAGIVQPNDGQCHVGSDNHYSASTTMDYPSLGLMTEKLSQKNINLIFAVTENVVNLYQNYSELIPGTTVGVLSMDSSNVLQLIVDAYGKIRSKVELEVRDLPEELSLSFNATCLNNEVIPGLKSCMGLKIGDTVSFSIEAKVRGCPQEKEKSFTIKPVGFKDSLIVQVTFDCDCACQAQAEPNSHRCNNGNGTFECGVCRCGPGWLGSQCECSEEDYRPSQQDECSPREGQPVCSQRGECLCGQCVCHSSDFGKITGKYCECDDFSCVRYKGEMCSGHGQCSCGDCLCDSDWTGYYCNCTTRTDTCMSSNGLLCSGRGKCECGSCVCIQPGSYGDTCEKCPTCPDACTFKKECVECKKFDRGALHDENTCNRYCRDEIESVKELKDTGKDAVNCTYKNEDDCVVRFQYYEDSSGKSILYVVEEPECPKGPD

Sequence of human αVβ3 integrin ectodomain (purchased, lyophilized) (human, UniProt P06756;P05106) (P06756 31-992, chain 1 of 2): as the sequence (P06756 31-992, chain 1 of 2) above
Sequence of human αVβ3 integrin ectodomain (purchased, lyophilized) (human, UniProt P06756;P05106) (P05106 27-718, chain 2 of 2): as the sequence (P05106 27-718, chain 2 of 2) above

Binder | Kd [1] | koff [1] | kon [1] | binding result [2]
Fab LM609 (recombinant antigen-binding fragment of the mouse monoclonal antibody LM609) (Fab, V domains shown) VH: EVQLEESGGGLVKPGGSLKLSCAASGFAFSSYDMSWVRQIPEKRLEWVAKVSSGGGSTYYLDTVQGRFTISRDNAKNTLYLQMSSLNSEDTAMYYCARHNYGSFAYWGQGTLVTVSA VL: ELVMTQTPATLSVTPGDSVSLSCRASQSISNHLHWYQQKSHESPRLLIKYASQSISGIPSRFSGSGSGTDFTLSINSVETEDFGMYFCQQSNSWPHTFGGGTKLEIK | 0.023 µM | 0.0034 s⁻¹ | 150000 M⁻¹ s⁻¹ | –
{FITC}-GRGDSPK [FITC-GRGDSPK peptide] | – | – | – | binds
